Source: the supplement of paper PMC12042874
± gives the uncertainty stated by the source.

Test: amyloid nucleation score (Sup35N fusion, yeast selection) (log enrichment); library NNK2; higher = more nucleation; inactive = no reads after selection
In short: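 Output and input plasmid inserts were sequenced by Illumina after psi-negative yeast carrying Sup35N fused to peptides of 20 random codons had been induced 24 hours with 100 μM copper sulfate and grown 7 days at 30°C on medium lacking adenine and uracil. The nucleation score is the DiMSum log enrichment of output over input reads, centred on the mode score of non-aggregating sequences. Sequences with under 100 input reads were excluded.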

Row | Substance | amyloid nucleation score
1 | YGLAC | 2.44 ± 0.072
2 | TVTVDIFSKEWTGGTNFCDI | -0.179 ± 0.76
3 | IYYLRLWSM | inactive
4 | AFSFDAW | 2.02 ± 0.14
5 | SYWSLRLFCFQLCLDHYRNG | 2.74 ± 0.21
6 | MTSRVETSKCNCSLQVWRPL | 0.579 ± 0.37
7 | YLNGLTYWDIMLPWAII | -0.324 ± 1.1
8 | RYGVRSQCYGVTKRLFAITA | 0.951 ± 0.33
9 | VILGVGKTTNFYSSFFIRVW | inactive
10 | IISGAFRCARNGY | 1.62 ± 0.3
11 | VRQYPSTVPSLWLYVGSRH | 4.19 ± 0.069
12 | YLSDNLIAFWIVHNQWMIMA | 6.005 ± 0.035
13 | MSSQKWADKVPWEFVCGCFD | 0.01 ± 0.65
14 | LLYHVGSTMGKPIYN | -0.669 ± 1
15 | TLYWNKSQRYGLLWFKFVSL | -0.277 ± 1
16 | GHNATNVGHIMFFITTWCCY | 8.955 ± 0.047
17 | KPWVTLLVCCSVYRFFMYYA | 4.96 ± 0.081
18 | SNFVQSGG | 0.138 ± 0.46
19 | ISFYQWRPWNFLRYRRGNAH | 0.237 ± 0.31
20 | FMNLTLGIYKDFITFMMYVS | 1.83 ± 0.12
21 | FTYLIEARG | 1.02 ± 0.41
22 | LTPLICADNLD | -0.526 ± 0.35

Row | Substance | amyloid nucleation score
23 | GIKYRSQCGCASDVCIKCRS | -0.054 ± 1.1
24 | INGPCVYFNFL | 6.425 ± 0.057
25 | NTFQSKDRGQWCSTRNAYKG | -0.772 ± 0.45
26 | SLYLNKSSSSGRIQLYGLFT | 0.049 ± 1.1
27 | QMGCWLGLLVDSLYLSWLVT | -0.2 ± 0.43
28 | FIHTRRCKYGWTSRFKTLTW | 0.105 ± 1.1
29 | VIHMVPMTEGGLPCTV | -0.139 ± 0.56
30 | GVVFFFGKDNGRDIMSGTRY | inactive
31 | CMREATFRLTSKFLSSFGL | 4.04 ± 0.086
32 | QMMLLTV | -0.214 ± 1.1
33 | RGQTMNHALRAHW | 0.639 ± 0.42
34 | IVMVPFLTIPVLYLVVMSSL | -0.788 ± 1.1
35 | HYMRFYCCSYNANKTVSYVP | 8.72 ± 0.028
36 | FHQIKFRVSFMHCRTSSANI | 2.25 ± 0.089
37 | LLVAKYNLEYRMLSCSDNRQ | 3.1 ± 0.17
38 | LRQGPTHFLYLGCYFVDAMR | 7.119 ± 0.066
39 | DNTLLALVGM | 1.57 ± 0.58
40 | LCVYLYWF | -1.01 ± 0.39
41 | PCNLKNNCVSEWIGLFVQPQ | 2.23 ± 0.18
42 | HPYYDQ | 0.538 ± 0.45
43 | YKILQFETSFRT | -0.977 ± 0.63
44 | LQVVVMFCPSL | 8.29 ± 0.024

Row | Substance | amyloid nucleation score
45 | FRFSNR | 0.389 ± 0.56
46 | TVILV | inactive
47 | ALTFTGV | 0.286 ± 0.41
48 | YCMCIFATLG | -0.398 ± 0.76
49 | VTFCMQVRAG | 0.524 ± 0.33
50 | IFASRSGFLSIRQLSHPARR | 3.35 ± 0.078
51 | FILDGSPVYWAIWKGG | -1.46 ± 0.78
52 | FWYSCR | -0.889 ± 0.41
53 | PFGMCSFTVVIYYGCFEDAH | 0.519 ± 0.3
54 | RVVGPFFMVFVLTDMGFWVT | inactive
55 | LAGNKYPWLS | -1.1 ± 0.53
56 | EIMSFSVRSKYAFWIPIAIC | -0.026 ± 0.53
57 | AFTSLPLCYSVYGKIKFCPC | 0.433 ± 0.62
58 | FLWKRVVLSREEMAMDTTGS | 5.47 ± 0.066
59 | YIFSSVNERLCPALNGWHLD | inactive
60 | YMWVCACRMSLIHGLSGHHD | 0.536 ± 0.46
61 | TVLLGHLEGRVYWEPMIQQV | 0.36 ± 0.64
62 | RTLYSGWVGHVSKEARNLFK | 6.12 ± 0.054
63 | RVWDNSVLGWQQGFSTVERV | 0.766 ± 0.3
64 | TSDPEFV | -0.627 ± 0.49
65 | TYAYYH | 5.61 ± 0.061
66 | NGYRG | 0.376 ± 0.53

Row | Substance | amyloid nucleation score
67 | NLCSGTIVVFIGCMKAAWFV | 4.39 ± 0.045
68 | VCVLKGDGGL | 0.339 ± 0.55
69 | ACTVWIMLRDSCWKARDRSG | 2.95 ± 0.082
70 | HWYVVDLVRVNYRALNSKWW | 0.194 ± 0.56
71 | VRLSWCNMFNRVFPI | 0.3 ± 0.8
72 | HKGWIKLLLPAHQLITLPPN | 0.174 ± 1
73 | NPLHP | 0.116 ± 0.24
74 | SWCLKRRTPHFVQVYHRNND | -0.095 ± 0.26
75 | TYFVLYVCED | 0.311 ± 0.23
76 | SCCCYMIGKGIPQM | 0.394 ± 0.3
77 | RNHVAHH | 2.17 ± 0.21
78 | KMHCGFDFEWVTTYNTTIVR | -0.369 ± 0.47
79 | RSCFPCSCK | 0.472 ± 0.31
80 | YFRAYWTCSEC | inactive
81 | AVCITFLSSCAIFFDSPVRV | 6.409 ± 0.047
82 | QFSLMRAIFMWASPRSWLLD | inactive
83 | REGPCGELGELPVLKRRGKH | 0.986 ± 0.41
84 | DYLCGNFKCYCVFTNDGNRF | 2.42 ± 0.21
85 | GSELMTSLSFVCGHVAAPAD | 0.669 ± 0.54
86 | LAYRKVLCMYSVSHSYTRAC | inactive
87 | LAHGPWGVSGDSV | 0.019 ± 1.1
88 | RLFCSAVAH | 0.308 ± 0.44
